One may read the Kd as a measure of binding affinity in units of concentration. Low values mean higher affinity, high ones lower affinity.

The target of this assay is MDM2 SWIB domain, Danio rerio (Danio rerio). As to the kind of experiment: fluorescence polarisation.

In turn, “alternative p53TAD_(D.rerio)^17-32 (P79734), ending with IIQPP (peptide)” had a Kd of 0.58 µM.
Substance “p53TAD_(D.rerio)^10-75 (domain or fragment)” returned a Kd of 0.049 µM and a fold higher affinity than p53TAD (D.rerio)^15-27 of over 70 fold.
With “p53TAD_(D.rerio)^12-55 (domain or fragment)”, the equilibrium dissociation constant (Kd) amounted to 0.18 µM.
In turn, “p53TAD_(D.rerio)^17-32 triple Ala mutant (AAAQP) (peptide)” displayed a fold reduced affinity against p53TAD (D.rerio)^17-32 of 7.7 fold.

(Values after paper doi:10.1101/2023.08.24.554616.)
